Laboratory results from FireProtDB (doi:10.1002/pro.5560070624).

B1: Ferrienterobactin receptor, P05825 (parent)
chain: MNKKIHSLALLVNLGIYGVAQAQEPTDTPVSHDDTIVVTAAEQNLQAPGVSTITADEIRKNPVARDVSKIIRTMPGVNLTGNSTSGQRGNNRQIDIRGMGPENTLILIDGKPVSSRNSVRQGWRGERDTRGDTSWVPPEMIERIEVLRGPAAARYGNGAAGGVVNIITKKGSGEWHGSWDAYFNAPEHKEEGATKRTNFSLTGPLGDEFSFRLYGNLDKTQADAWDINQGHQSARAGTYATTLPAGREGVINKDINGVVRWDFAPLQSLELEAGYSRQGNLYAGDTQNTNSDSYTRSKYGDETNRLYRQNYALTWNGGWDNGVTTSNWVQYEHTRNSRIPEGLAGGTEGKFNEKATQDFVDIDLDDVMLHSEVNLPIDFLVNQTLTLGTEWNQQRMKDLSSNTQALTGTNTGGAIDGVSTTDRSPYSKAEIFSLFAENNMELTDSTIVTPGLRFDHHSIVGNNWSPALNISQGLGDDFTLKMGIARAYKAPSLYQTNPNYILYSKGQGCYASAGGCYLQGNDDLKAETSINKEIGLEFKRDGWLAGVTWFRNDYRNKIEAGYVAVGQNAVGTDLYQWDNVPKAVVEGLEGSLNVPVSETVMWTNNITYMLKSENKTTGDRLSIIPEYTLNSTLSWQAREDLSMQTTFTWYGKQQPKKYNYKGQPAVGPETKEISPYSIVGLSATWDVTKNVSLTGGVDNLFDKRLWRAGNAQTTGDLAGANYIAGAGAYTYNEPGRTWYMSVNTHF

Variants of: B1
Conditions: Escherichia coli (strain K12); pH 7; 25 °C; GdnHCl; ESR; MOPS 20 mM; structure 1FEP; whole UniProt chain shown

Variant	denaturant m value [kcal/mol/M]	denaturant midpoint (higher = more stable) [M]
S276C	4.61	1.29
L266C	3.25	2.28
G274C	5.28	1.5
Q278C	1.31	1.91
E270C	4.08	1.65
E272C	5.76	1.57
S268C	4.21	1.77
